{"source": "patent US10849992B1", "about": "“Methods of screening for sortilin binding antagonists” (ALECTOR LLC, priority 2015, dated 2020)", "molecules": {"B1": {"name": "mouse PGRN: mouse PGRN protein, biotinylated, tested in the FACS binding assay (protein)", "chain": "TQCPDGQFCPVACCLDQGGANYSCCNPLLDTWPRITSHHLDGSCQTHGHCPAGYSCLLTVSGTSSCCPFSKGVSCGDGYHCCPQGFHCSADGKSCFQMSDNPLGAVQCPGSQFECPDSATCCIMVDGSWGCCPMPQASCCEDRVHCCPHGASCDLVHTRCVSPTGTHTLLKKFPAQKTNRAVSLPFSVVCPDAKTQCPDDSTCCELPTGKYGCCPMPNAICCSDHLHCCPQDTVCDLIQSKCLSKNYTTDLLTKLPGYPVKEVKCDMEVSCPEGYTCCRLNTGAWGCCPFAKAVCCEDHIHCCPAGFQCHTEKGTCEMGILQVPWMKKVIAPLRLPDPQILKSDTPCDDFTRCPTNNTCCKLNSGDWGCCPIPEAVCCSDNQHCCPQGFTCLAQGYCQKGDTMVAGLEKIPARQTTPLQIGDIGCDQHTSCPVGQTCCPSLKGSWACCQLPHAVCCEDRQHCCPAGYTCNVKARTCEKDVDFIQPPVLLTLGPKVGNVECGEGHFCHDNQTCCKDSAGVWACCPYLKGVCCRDGRHCCPGGFHCSARGTKCLRKKIPRWDMFLRDPVPRPLL"}}, "molecular_target": "T1, Sortilin (Homo sapiens, UniProt Q99523)", "T1 sequence (Q99523 78-831)": "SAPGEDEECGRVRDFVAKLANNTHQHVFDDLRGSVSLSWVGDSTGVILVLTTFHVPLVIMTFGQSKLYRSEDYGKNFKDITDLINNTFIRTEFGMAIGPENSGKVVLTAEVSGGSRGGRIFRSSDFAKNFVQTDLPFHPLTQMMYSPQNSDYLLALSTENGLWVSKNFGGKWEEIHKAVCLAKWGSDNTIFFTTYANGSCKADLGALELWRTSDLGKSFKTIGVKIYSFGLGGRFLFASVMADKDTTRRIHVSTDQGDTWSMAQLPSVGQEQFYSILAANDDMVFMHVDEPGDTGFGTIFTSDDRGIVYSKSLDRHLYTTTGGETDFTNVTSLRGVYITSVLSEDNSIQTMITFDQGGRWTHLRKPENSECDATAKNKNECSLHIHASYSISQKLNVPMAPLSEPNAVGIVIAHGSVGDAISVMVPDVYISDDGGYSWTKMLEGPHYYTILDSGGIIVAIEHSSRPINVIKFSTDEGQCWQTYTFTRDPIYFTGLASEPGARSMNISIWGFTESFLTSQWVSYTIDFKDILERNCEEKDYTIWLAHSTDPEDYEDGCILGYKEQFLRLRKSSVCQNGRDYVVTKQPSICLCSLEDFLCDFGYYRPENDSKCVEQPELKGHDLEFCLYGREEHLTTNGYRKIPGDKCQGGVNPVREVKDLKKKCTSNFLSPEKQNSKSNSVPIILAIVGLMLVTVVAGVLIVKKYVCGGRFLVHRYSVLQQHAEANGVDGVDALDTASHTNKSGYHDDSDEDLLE", "experiment": "Cell-based FACS assay: biotinylated PGRN binding to HEK293T cells expressing Sortilin", "parameters": "Full-length Sortilin was used either untagged (Topo3.3) or with a C-terminal myc tag (pCMV6-AC-IRES-GFP); myc (only in the pCMV6-AC-IRES-GFP construct); expressed in transfected cells; host or cells: HEK293T", "conditions": "on ice 2 h, Streptavidin-APC", "description": "HEK293T cells were transiently transfected with constructs for expressing Sortilin or LacZ (control) and incubated with biotinylated PGRN protein on ice for 2 h. Both human and mouse PGRN proteins were tested. Cells were then washed and incubated with Streptavidin-APC and analyzed using Fluorescence Activated Cell Sorting (FACS). For blocking assay, sortilin pro-domain peptide was used. Recombinant human PGRN (Adipogen) was biotinylated using a kit (EZ-link-Micro-NHS-PEG4 biotinylation kit, Thermo Scientific Pierce, #21955). Cells were transiently transfected with human Sortilin or lacZ (control) and GFP using Fugene and harvested after 24 h. GFP was either expressed by a second vector (Topo3.3, Invitrogen) or located on the same vector, separated by an IRES sequence (pCMV6-AC-IRES-GFP, Origene). Full-length Sortilin was used either untagged (Topo3.3) or with a C-terminal myc tag (pCMV6-AC-IRES-GFP). Human Progranulin was added in HBSS+1% BSA or PBS+1% BSA with or without Sortilin pro-peptide as a blocker, and incubated on ice for 2 h. […] Then cells were washed again, resuspended in HBSS+1% BSA and analyzed on a FACSCanto™ flow cytometer (BD Biosciences, Mississauga, ON). PGRN binding was measured as the median fluorescence intensity of APC on the GFP positive population."}
{"molecule": "B1", "values": [{"measurement": "binding of PGRN to sortilin-expressing, but not control (LacZ), HEK293T cells", "result": "strong and specific binding"}]}
